Laboratory results reported in paper PMC4188077.

Target: SeMet-substituted C. elegans ZYG-1 cryptic polo-box (CPB) domain (residues 338-564) (C. elegans)
Assay: SEC-MALS

stoichiometry N: 2
Substance: SeMet-substituted C. elegans ZYG-1 cryptic polo-box (CPB) domain (residues 338-564) (domain or fragment)
